Molecular target: C3b (human) (UniProt P01024)
Assay: SPR; Biacore T200; about 2488 RU of C3b immobilised by amine coupling on a CM5 chip; CFHR3 injected in duplicate at 10-300 ug/ml; 25 °C, 30 ul/min; 10 mM Hepes-buffered saline, 3 mM ENTA (so in the source), 0.05% surfactant p20; wild type: KD from rate constants, mutant: steady-state affinity fit

Substance | Kd [µM] | koff [s⁻¹] | kon [M⁻¹ s⁻¹]
mutant recombinant CFHR3 Arg142Cys (rs61737525, c.424 C > T) (from UniProt Q02985 19-330) (natural protein) | 18 | – | –
wild-type recombinant CFHR3 (complement factor H-related protein 3) (from UniProt Q02985 19-330) (natural protein) | 0.15 | 0.00128 | 8350

Reference: PMC5519609
